# Where two headings read alike, the source gives them in different places.
# B1: SEQ ID NO: 1: mature amino acid sequence of a wild type GH25 lysozyme from Acremonium alcalophilum with N-terminal SPIRR (protein)
# chain: SPIRRRIPGFDISGWQPTTDFARAYANGDRFVYIKATEGTTFKSSAFSRQYTGATQNGFIRGAYHFAQPAASSGAAQARYFASNGGGWSKDGITLPGALDIEYNPNGATCYGLSQSAMVNWIEDFVTTYHGITSRWPVIYTTTDWWTQCTGNSNRFANRCPLWIARYASSVGTLPNGWGFYTFWQYNDKYPQGGDSNWFNGDASRLRALANGD
# modifications: Wild type sequence with N-terminal SPIRR
# Assays:
# Clostridiales = test: Microbiota analysis of broiler trial 4 (16S rRNA), Clostridiales; assay type: in vivo, chicken; design: key to Observed shift compared to the control group, Significance: Significant change (+++), padj < 0.05; Numerical change (+); details: 50 ppm
# [1] = In vivo broiler trial 3, growth performance; design: species or system male broiler chickens; Motality: unit not given here
# Method: The in vivo trial was carried out as described in example 7, except the feed was supplemented with the GH25 lysozyme (SEQ ID NO: 1) at 12.5 or 25 mg per kg feed, the GH24 lysozyme (SEQ ID NO: 4) at 12.5 or 25 mg per kg feed or with Avilamycin at an inclusion level of 10 mg/kg. No additional enzymes (e.g. phytase) were added to the feed. The experimental diets (Starter, Grower and Finisher) were based on soybean meal, wheat and rye (12%) as main ingredients (Table 8). The diets were formulated to contain 225 g crude protein and 12.5 MJ/kg MEN for the starter period, 215 g crude protein and 12.8 MJ/kg MEN for the grower period and 205 g crude protein and 13.0 MJ/kg MEN for the finisher period.
# chicken gut microbiota = test: Microbiota analysis of broiler trial 4 (16S rRNA), overall composition; assay type: in vivo; details: 50 ppm; ceca content
# [2] = system: Clostridium perfringens DSM756; assay type: cell-based; details: for Diameter of zone of incomplete inhibition of growth visible after MTT coloring: 100 μg/ml; for Diameter of clearing zone: lysozymes 100 μg/ml, bacitracin 50 μg/ml
# Faecalibacterium = test: Microbiota analysis of broiler trial 4 (16S rRNA), Faecalibacterium; assay type: in vivo, chicken; design: key to Observed shift compared to the control group, Significance: Significant change (+++), padj < 0.05; Numerical change (+); details: 50 ppm
# [3] = Finisher (d 36-42), 12.5 mg/kg feed
# [4] = Finisher (d 36-42), 25 mg/kg feed
# [5] = Grower (d 22-36), 12.5 mg/kg feed
# [6] = Grower (d 22-36), 25 mg/kg feed
# [7] = Starter (d 1-22), 12.5 mg/kg feed
# [8] = Starter (d 1-22), 25 mg/kg feed
# [9] = Whole period (d 1-42), 12.5 mg/kg feed
# [10] = Whole period (d 1-42), 25 mg/kg feed
molecule,measurement,setting,value
B1,"Observed shift compared to the control group, Significance",Clostridiales; Order level (Clostridiales),+
same,Clostridiales Change vs control,Clostridiales; order level,5.3792
same,Clostridiales Ratio vs control,Clostridiales; order level,1.1671
same,"Clostridiales abundance, Lysozyme treatment","Clostridiales; order level, ceca content",37.5638
same,Benefit over the NC diet,[1]; 12.5 mg/kg,did not show any benefit
same,FCR,[1]; [3],1.953
same,"FCR, Relative to C (%)",[1]; [3],99.6%
same,Feed intake,[1]; [3],1544 g/b
same,"Feed intake, Relative to C (%)",[1]; [3],103.8%
same,Weight gain,[1]; [3],794 g/b
same,"Weight gain, Relative to C (%)",[1]; [3],104.2%
same,FCR,[1]; [4],1.968
same,"FCR, Relative to C (%)",[1]; [4],100.4%
same,Feed intake,[1]; [4],1522 g/b
same,"Feed intake, Relative to C (%)",[1]; [4],102.3%
same,Weight gain,[1]; [4],775 g/b
same,"Weight gain, Relative to C (%)",[1]; [4],101.8%
same,FCR,[1]; [5],1.734
same,"FCR, Relative to C (%)",[1]; [5],100.6%
same,Feed intake,[1]; [5],2365 g/b
same,"Feed intake, Relative to C (%)",[1]; [5],103.5%
same,Weight gain,[1]; [5],1365 g/b
same,"Weight gain, Relative to C (%)",[1]; [5],102.8%
same,FCR,[1]; [6],1.692
same,"FCR, Relative to C (%)",[1]; [6],98.2%
same,Feed intake,[1]; [6],2308 g/b
same,"Feed intake, Relative to C (%)",[1]; [6],101.0%
same,Weight gain,[1]; [6],1364 g/b
same,"Weight gain, Relative to C (%)",[1]; [6],102.7%
same,FCR,[1]; [7],1.466
same,"FCR, Relative to C (%)",[1]; [7],101.8%
same,Feed intake,[1]; [7],1621 g/b
same,"Feed intake, Relative to C (%)",[1]; [7],102.7%
same,Weight gain,[1]; [7],1106 g/b
same,"Weight gain, Relative to C (%)",[1]; [7],100.9%
same,FCR,[1]; [8],1.413
same,"FCR, Relative to C (%)",[1]; [8],98.1%
same,Feed intake,[1]; [8],1596 g/b
same,"Feed intake, Relative to C (%)",[1]; [8],101.1%
same,Weight gain,[1]; [8],1129 g/b
same,"Weight gain, Relative to C (%)",[1]; [8],103.0%
same,EPEF,[1]; [9],398
same,"EPEF, Relative to C (%)",[1]; [9],95.2%
same,FCR,[1]; [9],1.695
same,"FCR, Relative to C (%)",[1]; [9],100.9%
same,Feed intake,[1]; [9],5529 g/b
same,"Feed intake, Relative to C (%)",[1]; [9],103.3%
same,Motality,[1]; [9],13.1
same,Weight gain,[1]; [9],3264 g/b
same,"Weight gain, Relative to C (%)",[1]; [9],102.5%
same,EPEF,[1]; [10],428
same,"EPEF, Relative to C (%)",[1]; [10],102.4%
same,FCR,[1]; [10],1.660
same,"FCR, Relative to C (%)",[1]; [10],98.8%
same,Feed intake,[1]; [10],5426 g/b
same,"Feed intake, Relative to C (%)",[1]; [10],101.4%
same,Motality,[1]; [10],8.8
same,Weight gain,[1]; [10],3269 g/b
same,"Weight gain, Relative to C (%)",[1]; [10],102.6%
same,EPEF improvement compared to NC diet,"[1]; whole period, 25 mg/kg",1.7%
same,FCR improvement compared to NC diet,"[1]; whole period, 25 mg/kg",1.4%
same,"Observed shift in the composition of the microbiota compared to the control group, Significance",chicken gut microbiota,"+++ (Significant change (+++), p-value < 0.05)"
same,Inhibition zone,"[2]; 1/10 MHB, pH7, both experiments",11-13 mm
same,Diameter of zone of incomplete inhibition of growth visible after MTT coloring,"[2]; Experiment 1, 1/2 MHB pH 6",20 mm
same,Diameter of clearing zone,"[2]; Experiment 1, 1/2 MHB pH 6",6 mm
same,Diameter of clearing zone,"[2]; Experiment 1, 1/10 MHB pH 7",13 mm
same,Diameter of zone of incomplete inhibition of growth visible after MTT coloring,"[2]; Experiment 2, 1/2 MHB pH 6",19 mm
same,Diameter of clearing zone,"[2]; Experiment 2, 1/2 MHB pH 6",4 mm
same,Diameter of clearing zone,"[2]; Experiment 2, 1/10 MHB pH 7",11 mm
same,Larger incomplete clearing zone,"[2]; ½ MHB, pH 6, after coloring with MTT",19-20 mm
same,Clearing zone diameter,"[2]; ½ MHB, pH 6, both experiments",4-6 mm
same,"Observed shift compared to the control group, Significance",Faecalibacterium; Genus level (Faecalibacterium),+
same,"Observed shift compared to the control group, Significance",Faecalibacterium; OTU level (Faecalibacterium species),"+++ (Significant change (+++), padj < 0.05)"
same,OTU #27 (Faecalibacterium) Change vs control,Faecalibacterium; OTU level,3.45
same,OTU #27 (Faecalibacterium) Ratio vs control,Faecalibacterium; OTU level,16.53
same,"OTU #27 (Faecalibacterium) abundance, Lysozyme treatment","Faecalibacterium; OTU level, ceca content",3.67
same,Faecalibacterium Change vs control,Faecalibacterium; genus level,5.65
same,Faecalibacterium Ratio vs control,Faecalibacterium; genus level,4.04
same,"Faecalibacterium abundance, Lysozyme treatment","Faecalibacterium; genus level, ceca content",7.50
